B1: LXRb: Liver X Receptor β (NR1H2), cDNA driver (protein, UniProt P55055 1-460, looked up)
Oxysterols receptor LXR-beta: MSSPTTSSLDTPLPGNGPPQPGAPSSSPTVKEEGPEPWPGGPDPDVPGTDEASSACSTDWVIPDPEEEPERKRKKGPAPKMLGHELCRVCGDKASGFHYNVLSCEGCKGFFRRSVVRGGARRYACRGGGTCQMDAFMRRKCQQCRLRKCKEAGMREQCVLSEEQIRKKKIRKQQQESQSQSQSPVGPQGSSSSASGPGASPGGSEAGSQGSGEGEGVQLTAAQELMIQQLVAAQLQCNKRSFSDQPKVTPWPLGADPQSRDARQQRFAHFTELAIISVQEIVDFAKQVPGFLQLGREDQIALLKASTIEIMLLETARRYNHETECITFLKDFTYSKDDFHRAGLQVEFINPIFEFSRAMRRLGLDDAEYALLIAINIFSADRPNVQEPGRVEALQQPYVEALLSYTRIKRPQDQLRFPRMLMKLVSLRTLSSVHSEQVFALRLQDKKLPPLLSEIWDVHE
B2: RVRa: Rev-Erb α (NR1D1), cDNA driver (protein, UniProt P20393 1-614, looked up)
Nuclear receptor subfamily 1 …: MTTLDSNNNTGGVITYIGSSGSSPSRTSPESLYSDNSNGSFQSLTQGCPTYFPPSPTGSLTQDPARSFGSIPPSLSDDGSPSSSSSSSSSSSSFYNGSPPGSLQVAMEDSSRVSPSKSTSNITKLNGMVLLCKVCGDVASGFHYGVHACEGCKGFFRRSIQQNIQYKRCLKNENCSIVRINRNRCQQCRFKKCLSVGMSRDAVRFGRIPKREKQRMLAEMQSAMNLANNQLSSQCPLETSPTQHPTPGPMGPSPPPAPVPSPLVGFSQFPQQLTPPRSPSPEPTVEDVISQVARAHREIFTYAHDKLGSSPGNFNANHASGSPPATTPHRWENQGCPPAPNDNNTLAAQRHNEALNGLRQAPSSYPPTWPPGPAHHSCHQSNSNGHRLCPTHVYAAPEGKAPANSPRQGNSKNVLLACPMNMYPHGRSGRTVQEIWEDFSMSFTPAVREVVEFAKHIPGFRDLSQHDQVTLLKAGTFEVLMVRFASLFNVKDQTVMFLSRTTYSLQELGAMGMGDLLSAMFDFSEKLNSLALTEEELGLFTAVVLVSADRSGMENSASVEQLQETLLRALRALVLKNRPLETSRFTKLLLKLPDLRTLNNMHSEKLLSFRVDAQ
B3: RORg: RAR-related Orphan Receptor γ (NR1F3), cDNA driver (protein, UniProt P51449 1-518, looked up)
Nuclear receptor ROR-gamma: MDRAPQRQHRASRELLAAKKTHTSQIEVIPCKICGDKSSGIHYGVITCEGCKGFFRRSQRCNAAYSCTRQQNCPIDRTSRNRCQHCRLQKCLALGMSRDAVKFGRMSKKQRDSLHAEVQKQLQQRQQQQQEPVVKTPPAGAQGADTLTYTLGLPDGQLPLGSSPDLPEASACPPGLLKASGSGPSYSNNLAKAGLNGASCHLEYSPERGKAEGRESFYSTGSQLTPDRCGLRFEEHRHPGLGELGQGPDSYGSPSFRSTPEAPYASLTEIEHLVQSVCKSYRETCQLRLEDLLRQRSNIFSREEVTGYQRKSMWEMWERCAHHLTEAIQYVVEFAKRLSGFMELCQNDQIVLLKAGAMEVVLVRMCRAYNADNRTVFFEGKYGGMELFRALGCSELISSIFDFSHSLSALHFSEDEIALYTALVLINAHRPGLQEKRKVEQLQYNLELAFHHHLCKTHRQSILAKLPPKGKLRSLCSQHVERLQIFQHLHPIVVQAAFPPLYKELFSTETESPVGLSK
B4: RORa: RAR-related Orphan Receptor α (NR1F1), cDNA driver (protein, UniProt P35398 1-523, looked up)
Nuclear receptor ROR-alpha: MESAPAAPDPAASEPGSSGADAAAGSRETPLNQESARKSEPPAPVRRQSYSSTSRGISVTKKTHTSQIEIIPCKICGDKSSGIHYGVITCEGCKGFFRRSQQSNATYSCPRQKNCLIDRTSRNRCQHCRLQKCLAVGMSRDAVKFGRMSKKQRDSLYAEVQKHRMQQQQRDHQQQPGEAEPLTPTYNISANGLTELHDDLSNYIDGHTPEGSKADSAVSSFYLDIQPSPDQSGLDINGIKPEPICDYTPASGFFPYCSFTNGETSPTVSMAELEHLAQNISKSHLETCQYLREELQQITWQTFLQEEIENYQNKQREVMWQLCAIKITEAIQYVVEFAKRIDGFMELCQNDQIVLLKAGSLEVVFIRMCRAFDSQNNTVYFDGKYASPDVFKSLGCEDFISFVFEFGKSLCSMHLTEDEIALFSAFVLMSADRSWLQEKVKIEKLQQKIQLALQHVLQKNHREDGILTKLICKVSTLRALCGRHTEKLMAFKAIYPDIVRLHFPPLYKELFTSEFEPAMQIDG

Legend:
[1] = system: mABCA1 promoter; assay: NHR-promoter luciferase screen, mABCA1 promoter; format: cell-based, mouse; conditions: for Luc. act., normalized to lacZ / Normalized Luc. act., normalized to control: ABCA1 promoter, hormone receptor with or without its ligand; for Normalized Luc. act., normalized to control: relative to control; for mABCA1 promoter reporter activity: transcription factor +/- ligand, control = 1.00
Method: (§1) The use, feasibility, and reproducibility of the functional NHR-promoter screen in a 48-well format have been tested validated. Briefly, there were co-expressed 50 ng of each NHR/NHR homodimer or NHR/RXR heterodimer with 100 ng promoter/luciferase construct and 50 ng of LacZ (as a control for transfection efficiency) in CV-1 cells using Fugene HD (Roche) as a transfection reagent (alternatively or additionally, a CMV-YFP construct can be used as a transfection control). Each of the nuclear hormone receptors that were used in these experiments was cloned into a pcDNA3.1 vector and comprised a C-terminally linked V5H6 tag. Twenty-four hours after transfection, appropriate ligands were added, where applicable, (see Table 5 for various ligands and concentrations and after 48 hrs, samples were assayed for luciferase and LacZ activity. To measure for luciferase activity 15 ul of sample was added to 30 ul of luciferase buffer (20 mM tricine, 1.07 mM MgCarbonate, 2.67 mM MgSulfate, 0.1 mM Naz-EDTA, 5 mM DTT, 5 mM ATP, 0.15 mg/ml CoA, 0.5 mM Luciferin), mixed briefly, and run in a Perkin Elmer Victor 5 luminometer. Thus, the functional NHR-promoter screen was used to observe the transcriptional activity of 29 promoters from various physiological pathways including inflammation, lipid and sugar metabolism, cholesterol transport, xenobiotic metabolism, and circadian rhythm.
(§2) The promoters that facilitate transcription of the indicated gene products that were tested using the protocols described herein are listed in the first row of the table. The nuclear hormone receptors and, where applicable, ligands that were assayed for their transcriptional effects on the promoters are listed in the first column of the table. The data represent the luciferase activity of each sample normalized to both the lacZ activity of that sample and to a control, e.g., no NHR or ligand, as customary in the art. As described previously, these normalizations allow the transcriptional activity of each reporter cell to be compared to other samples.
(§3) Tables 7-40 show the transcriptional effects of the hormone receptors, and, where applicable, ligands (orphan receptors are screened without ligand), on each individual promoter. […] The control data of each table are shown in their last rows.

[2] = system: mDio2 promoter; assay: NHR-promoter luciferase screen, mDio2 promoter; format: cell-based, mouse; conditions: for Luc. act., normalized to lacZ / Normalized Luc. act., normalized to control: Dio2, HR component without or with its ligand; for mDio2 promoter reporter activity: transcription factor +/- ligand, control = 1.00
Method: as §1, §2, §3

[3] = system: hIFNg promoter; assay: NHR-promoter luciferase screen, hIFNg promoter; format: cell-based, human; conditions: for Luc. act., normalized to lacZ / Normalized Luc. act., normalized to control: IFNg promoter, HR component without or with ligand; for hIFNg promoter reporter activity: transcription factor +/- ligand, control = 1.00
Method: as §1, §2, §3

[4] = system: mUCP2 promoter; assay: NHR-promoter luciferase screen, mUCP2 promoter; format: cell-based, mouse; conditions: for Luc. act., normalized to lacZ / Normalized Luc. act., normalized to control: mUCP2 promoter reporter, co-transfected HR, with or without its ligand; for Normalized Luc. act., normalized to control: relative to control; for luciferase activity normalized to lacZ activity and to a control, mUCP2: mUCP2 promoter-luciferase, CV-1 cells, NHR +/- ligand, control = 1.00
Method: as §1, §2, §3

[5] = system: mCAR promoter; assay: NHR-promoter luciferase screen, mCAR promoter; format: cell-based, mouse; conditions: for luciferase activity normalized to lacZ activity and to a control, mCAR: mCAR promoter-luciferase, CV-1 cells, NHR +/- ligand, control = 1.00; for Luc. act., normalized to lacZ / Normalized Luc. act., normalized to control: mCAR promoter, HR/ligand component
Method: as §1, §2, §3

[6] = system: hPPARg2 promoter; assay: NHR-promoter luciferase screen, hPPARg2 promoter; format: cell-based, human; conditions: for Luc. act., normalized to lacZ / Normalized Luc. act., normalized to control: PPARG2 promoter, hormone receptor with or without its ligand; for Normalized Luc. act., normalized to control: relative to control; for Results of assays of transcription factor (+/- ligand) with hPPARg2: Table 6d, luciferase activity relative to control (control = 1.00)
Method: as §1, §2, §3

Row | Molecule | Luc. act., normalized to lacZ [1] | Normalized Luc. act., normalized to control [1] | mABCA1 promoter reporter activity [1] | Luc. act., normalized to lacZ [2] | Normalized Luc. act., normalized to control [2] | mDio2 promoter reporter activity [2] | Luc. act., normalized to lacZ [3] | Normalized Luc. act., normalized to control [3] | hIFNg promoter reporter activity [3] | Luc. act., normalized to lacZ [4] | Normalized Luc. act., normalized to control [4] | luciferase activity normalized to lacZ activity and to a control, mUCP2 [4] | luciferase activity normalized to lacZ activity and to a control, mCAR [5] | Luc. act., normalized to lacZ [5] | Normalized Luc. act., normalized to control [5] | Luc. act., normalized to lacZ [6] | Normalized Luc. act., normalized to control [6] | Results of assays of transcription factor (+/- ligand) with hPPARg2 [6]
1 | B1 | 46.3 | 8.3 | 8.25 | 18.1 | 1.2 | 1.15 | 19.35 | 1.2 | 1.22 | 170.7 | 1.6 | 1.55 | 0.92 | 34.9 | 0.9 | 2.4 | 1.2 | 1.19
2 | B2 | 46.3 | 8.3 | 8.25 | 21.5 | 1.4 | 1.37 | 17.9 | 1.1 | 1.13 | 143.0 | 1.3 | 1.30 | 0.89 | 34.0 | 0.9 | 1.5 | 0.8 | 0.76
3 | B3 | 29.4 | 5.2 | 5.23 | 58.7 | 3.7 | 3.74 | 17.9 | 1.1 | 1.12 | 169.5 | 1.5 | 1.54 | 1.13 | 43.1 | 1.1 | 19.2 | 9.6 | 9.59
4 | B4 | 33.0 | 5.9 | 5.87 | 47.2 | 3.0 | 3.01 | 8.8 | 0.6 | 0.55 | 104.0 | 0.9 | 0.95 | 0.55 | 20.9 | 0.5 | 8.4 | 4.2 | 4.19

Source: US20110263454A1, “Methods of Identifying Functional Characteristics of Promoters, Transcription Modifying Proteins and Transcription Modulating Agents” (Salk Institute for Biological Studies, priority 2008, published 2011)
